± gives the standard deviation of the averaged measurements.
Assay: total protein half-life in vivo (active degradation + dilution); higher = more stable protein
[1] = E. coli NCM3722 delta-clpP delta-lon delta-hslV, growth: N-lim chemostat, doubling time 6 h
[2] = E. coli NCM3722 delta-clpP, growth: N-lim chemostat, doubling time 6 h
[3] = E. coli NCM3722 delta-hslV, growth: N-lim chemostat, doubling time 6 h
[4] = E. coli NCM3722 delta-lon, growth: N-lim chemostat, doubling time 6 h
[5] = E. coli NCM3722 delta-smpB, growth: N-lim chemostat, doubling time 6 h
[6] = wild type E. coli NCM3722, growth: C-lim chemostat, doubling time 3 h
[7] = wild type E. coli NCM3722, growth: C-lim chemostat, doubling time 6 h
[8] = wild type E. coli NCM3722, growth: C-lim chemostat, doubling time 12 h
[9] = wild type E. coli NCM3722, growth: N-lim chemostat, doubling time 6 h
[10] = wild type E. coli NCM3722, growth: N-lim chemostat, doubling time 12 h
[11] = wild type E. coli NCM3722, growth: P-lim chemostat, doubling time 6 h
[12] = wild type E. coli NCM3722, growth: P-lim chemostat, doubling time 12 h

Sequence	total protein half-life in vivo [1]	total protein half-life in vivo [2]	total protein half-life in vivo [3]	total protein half-life in vivo [4]	total protein half-life in vivo [5]	total protein half-life in vivo [6]	total protein half-life in vivo [7]	total protein half-life in vivo [8]	total protein half-life in vivo [9]	total protein half-life in vivo [10]	total protein half-life in vivo [11]	total protein half-life in vivo [12]
MSNLSLDFSDNTFQPLAARMRPENLAQYIGQQHLLAAGKPLPRAIEAGHLHSMILWGPPGTGKTTLAEVIARYANADVERISAVTSGVKEIREAIERARQNRNAGRRTILFVDEVHRFNKSQQDAFLPHIEDGTITFIGATTENPSFELNSALLSRARVYLLKSLSTEDIEQVLTQAMEDKTRGYGGQDIVLPDETRRAIAELVNGDARRALNTLEMMADMAEVDDSGKRVLKPELLTEIAGERSARFDNKGDRFYDLISALHKSVRGSAPDAALYWYARIITAGGDPLYVARRCLAIASEDVGNADPRAMQVAIAAWDCFTRVGPAEGERAIAQAIVYLACAPKSNAVYTAFKAALADARERPDYDVPVHLRNAPTKLMKEMGYGQEYRYAHDEANAYAAGEVYFPPEIAQTRYYFPTNRGLEGKIGEKLAWLAEQDQNSPIKRYR [P0AAZ4]	5.65 ± 0.3 h	4.56 ± 0.49 h	4.91 ± 1.5 h	4.562 ± 0.028 h	3.65 ± 0.14 h	3.02 ± 0.14 h	5.39 ± 0.29 h	9.37 ± 0.81 h	3.82 ± 0.099 h	5.11 ± 0.23 h	5.07 ± 0.082 h	9.954 ± 0.019 h
MLNETPALAPDGQPYRLLTLRNNAGMVVTLMDWGATLLSARIPLSDGSVREALLGCASPECYQDQAAFLGASIGRYANRIANSRYTFDGETVTLSPSQGVNQLHGGPEGFDKRRWQIVNQNDRQVLFALSSDDGDQGFPGNLGATVQYRLTDDNRISITYRATVDKPCPVNMTNHVYFNLDGEQSDVRNHKLQILADEYLPVDEGGIPHDGLKSVAGTSFDFRSAKIIASEFLADDDQRKVKGYDHAFLLQAKGDGKKVAAHVWSADEKLQLKVYTTAPALQFYSGNFLGGTPSRGTEPYADWQGLALESEFLPDSPNHPEWPQPDCFLRPGEEYSSLTEYQFIAE [P0A9C3]	5.1 ± 0.083 h	4.67 ± 0.097 h	–	4.63 ± 0.11 h	4.275 ± 0.041 h	3.16 ± 0.33 h	6.76 ± 0.95 h	12.3 ± 1.5 h	4.71 ± 0.91 h	7.76 ± 0.98 h	6.38 ± 0.48 h	–
MFSIKPGPRNLPIDNPTLLSWNITDGDLNSKLNTLEYLNCITNIINSCGVYPQGLKDREIISTFHAEKVINDLLKNDYKISLSPDTTYRELNKAAQRSITAPDRIGERKTWVYQRDTMIERGDNSGVYQYGRAEHFTHIISDKPSPKDKYVAYAINIPDYELAADVYNINVTSPSGQQETFKILINLEHLRQTLERKSLTAVQKSQCEIITPKKPGEAILHAFNATYQQIRENMSEFARCHYGYIQIPPVTTFRADGPETPEEEKGYWFHAYQPEDLCTIHNPMGDLQDFIALVKDAKKFGIDIIPDYTFNFMGIGGSGKNDLDYPSADIRAKISKDIEGGIPGYWQGQVLIPFIKDPVTKERKQIHPEDIHLTAKDFEASKDNISKDEWENLHALKEKRLNGMPKTTPKSDQVIMLQNQYVREMRKYGVRGLRYDAAKHSKHEQIERSITPPLKNYNERLHNTNLFNPKYHKKAVMNYMEYLVTCQLDEQQMSSLLYERDDLSAIDFSLLMKTIKAFSFGGDLQTLASKPGSTISSIPSERRILININHDFPNNGNLFNDFLFNHQQDEQLAMAYIAALPFSRPLVYWDGQVLKSTTEIKNYDGSTRVGGEAWLNKGCSTYQQLYNEFHALYIDKAGIWSAFEGVSATKNVLAFSRGDSVNINHSPHDGLVIINKGNEEVEGTWPNKLQPGIYKNMGSNSVNIIINNTRKIIPPGKVFTLRGGTLNINIPGRSALLLGKTGEPPNYLYL	4.26 ± 0.095 h	3.78 h	3.6 ± 0.55 h	3.86 ± 0.15 h	3.93 ± 0.2 h	3.14 ± 0.21 h	4.93 h	9.02 h	3.51 h	5.65 h	4.45 h	11.3 ± 3.7 h
MYQDLIRNELNEAAETLANFLKDDANIHAIQRAAVLLADSFKAGGKVLSCGNGGSHCDAMHFAEELTGRYRENRPGYPAIAISDVSHISCVGNDFGFNDIFSRYVEAVGREGDVLLGISTSGNSANVIKAIAAAREKGMKVITLTGKDGGKMAGTADIEIRVPHFGYADRIQEIHIKVIHILIQLIEKEMVK	4.5 ± 0.5 h	4.44 ± 0.26 h	4.63 ± 0.36 h	5.19 ± 0.35 h	4.26 ± 0.082 h	3.04 ± 0.14 h	5.89 ± 0.46 h	11 ± 0.45 h	4.37 ± 0.08 h	7.07 ± 0.52 h	5.73 ± 0.15 h	11.13 ± 0.11 h
MEWLVKKSCCNKQDNRHVLMLCDAGGAIKMIAEVKSDFAVKVGDLLSPLQNALYCINREKLHTVKVLSASSYSPDEWERQCKVAGKTQ	5.09 ± 0.77 h	–	3.24 h	3.35 h	4.9 h	2.04 ± 0.53 h	4.32 h	7.64 ± 1.4 h	–	4.88 h	4.39 h	7.16 ± 1.1 h
MPGRFELKPTLEKVWHAPDNFRFMDPLPPMHRRGIIIAAIVLVVGFLLPSDDTPNAPVVTREAQLDIQSQSQPPTEEQLRAQLVTPQNDPDQVAPVAPEPIQEGQPEEQPQTTQTQPFQPDSGIDNQWRSYRVEPGKTMAQLFRDHGLPATDVYAMAQVEGAGKPLSNLQNGQMVKIRQNASGVVTGLTIDTGNNQQVLFTRQPDGSFIRAR	5.6 ± 0.12 h	6.35 ± 0.2 h	5.57 ± 0.45 h	6.65 ± 0.27 h	6.12 ± 0.68 h	–	5 ± 0.64 h	9.18 ± 0.36 h	5.79 ± 1.1 h	11.4 ± 0.3 h	–	8.86 ± 0.21 h
MLDKIDRKLLALLQQDCTLSLQALAEAVNLTTTPCWKRLKRLEDDGILIGKVALLDPEKIGLGLTAFVLIKTQHHSSEWYCRFVTVVTEMPEVLGFWRMAGEYDYLMRVQVADMKRYDEFYKRLVNSVPGLSDVTSSFAMEQIKYTTSLPIE [P0ACJ5]	5.92 ± 0.82 h	4.67 ± 0.26 h	4.43 ± 1.7 h	5.95 h	5.08 ± 0.24 h	3.37 ± 0.6 h	5.09 ± 0.47 h	8.43 ± 3.3 h	4.34 ± 0.2 h	9.01 ± 4.2 h	4.45 h	10.3 ± 3.2 h
MDRRRFIKGSMAMAAVCGTSGIASLFSQAAFAADSDIADGQTQRFDFSILQSMAHDLAQTAWRGAPRPLPDTLATMTPQAYNSIQYDAEKSLWHNVENRQLDAQFFHMGMGFRRRVRMFSVDPATHLAREIHFRPELFKYNDAGVDTKQLEGQSDLGFAGFRVFKAPELARRDVVSFLGASYFRAVDDTYQYGLSARGLAIDTYTDSKEEFPDFTAFWFDTVKPGATTFTVYALLDSASITGAYKFTIHCEKSQVIMDVENHLYARKDIKQLGIAPMTSMFSCGTNERRMCDTIHPQIHDSDRLSMWRGNGEWICRPLNNPQKLQFNAYTDNNPKGFGLLQLDRDFSHYQDIMGWYNKRPSLWVEPRNKWGKGTIGLMEIPTTGETLDNIVCFWQPEKAVKAGDEFAFQYRLYWSAQPPVHCPLARVMATRTGMGGFSEGWAPGEHYPEKWARRFAVDFVGGDLKAAAPKGIEPVITLSSGEAKQIEILYIEPIDGYRIQFDWYPTSDSTDPVDMRMYLRCQGDAISETWLYQYFPPAPDKRQYVDDRVMS	6.6 ± 0.085 h	6.09 ± 0.27 h	5.73 ± 0.087 h	5.99 ± 0.14 h	5.86 ± 0.28 h	3.22 ± 0.084 h	6.205 ± 0.046 h	12.5 ± 1.2 h	6.44 ± 0.42 h	12.6 ± 0.7 h	6.71 ± 0.95 h	12.628 ± 0.0049 h

From the supplement of paper PMC11246515
